Among the data in paper PMC3585047 (The Journal of Biological Chemistry, 2013) are Kd values, retold here.

The target in the test is APOBEC3G, fluorescein-labelled (F-A3G) (human, UniProt Q9HC16 1-384, fluorescein (Fluorescein-EX Protein Labeling kit), sites not stated). The test can be described thus: fluorescence polarisation. (In fluorescence polarisation assays a small probe gives low polarisation when free and higher when bound to something large.)
APOBEC3G, fluorescein-labelled (F-A3G), sequence (Q9HC16 whole entry): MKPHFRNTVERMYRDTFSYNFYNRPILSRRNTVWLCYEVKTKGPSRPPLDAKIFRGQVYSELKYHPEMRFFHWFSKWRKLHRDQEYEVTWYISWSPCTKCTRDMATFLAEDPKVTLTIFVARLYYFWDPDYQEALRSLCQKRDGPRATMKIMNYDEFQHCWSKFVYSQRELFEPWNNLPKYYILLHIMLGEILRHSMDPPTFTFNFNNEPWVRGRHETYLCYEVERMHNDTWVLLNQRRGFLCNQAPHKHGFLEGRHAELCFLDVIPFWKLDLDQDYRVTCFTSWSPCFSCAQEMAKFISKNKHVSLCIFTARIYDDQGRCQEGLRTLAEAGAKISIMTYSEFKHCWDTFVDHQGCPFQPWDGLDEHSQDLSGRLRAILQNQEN

B1: GST-Vif_(HXB2) (natural protein)
chain: not shown
For B1, the Kd (usually the equilibrium constant for the complex coming apart) amounted to 90 nM.

B2: GST-Vif_(IIIB) (natural protein)
chain: not shown
Turning to B2, the equilibrium dissociation constant (Kd) was 78 nM.
